Assay type in all cases: cell-based, human
For one experiment, the system named is CAPRIN-1 protein. Briefly: Flow cytometry: expression of CAPRIN-1 protein on the cell surface of MCF-7 treated with antitumor agents. The note with it: 1 μg antibody. On the procedure: The cancer cell line MCF-7 was treated with each antitumor agent at a 50% inhibitory concentration which was calculated in (1) above, and the expression behavior of a CAPRIN-1 protein on the cell surface was examined.
The expression behavior of the CAPRIN-1 protein on the surface of the above-treated MCF-7 human breast cancer cell was examined. The cell was prepared to a concentration of 1×10^5 cells/ml, and then cultured on a 6-well plate under conditions of 37° C. and 5% CO2 for 1 day. Next, the cell was treated with antitumor agents at the 50% inhibitory concentration calculated in (1) above, or with PBS(−) as a control, and then cultured under conditions of 37° C. and 5% CO2 for 2 days. […] After washing with PBS, fluorescence intensity was measured using a FACS caliber (Becton, Dickinson and Company). […] As a result, no significant difference in fluorescence intensity was observed regardless of treatment with an antitumor agent. Specifically, the fluorescence intensity obtained in the case of adding the anti-CAPRIN-1 antibody to MCF-7 not treated with any antitumor agent indicated 32% higher enhancement when compared with that in the case of adding the control antibody. […] Here, the percentage of enhancement in fluorescence intensity was represented by the percentage of increase in mean fluorescence intensity (MFI level) in each cell and calculated by the following formula. […]

Another experiment concerns A549. The experiment can be described thus: ADCC activity, chromium-51 release. The conditions noted are these: lung cancer cell line. On the procedure: (§1) The above-selected anti-CAPRIN-1 monoclonal antibodies #1 to #11 were evaluated for their cytotoxic activities against cancer cells (ADCC activity). Hybridomas producing the monoclonal antibodies #1 to #11 were each cultured using hybridoma SFM medium (Invitrogen). The thus obtained supernatant was purified using Hitrap ProteinA Sepharose FF (GE HealthCare), replaced with PBS(−), and then filtered through 0.22 μm filter (Millipore). The obtained filtrates were used as antibodies for assay. The human breast cancer cell line MDA-MB-157 (10^6 cells) was collected in a 50-ml centrifuge tube, to which 100 μCi chromium(Cr)-51 was then added, and incubated at 37° C. for 2 hours. Subsequently, the cells were washed 3 times with RPMI1640 medium containing 10% FBS, and then dispensed into each well of a 96-well V-bottom plate at 10^3 cells per well. The thus obtained cells are used as target cell. The above purified antibodies (1 μg each) were added to the cells. Separately, mouse lymphocytes separated from the mouse spleen were further added (2×10^5 cells) and then cultured under conditions of 37° C. and 5% CO2 for 4 hours. After culture, the amount of chromium(Cr)-51 released from cytotoxically impaired tumor cells in a culture supernatant was measured, so that the ADCC activity of each anti-CAPRIN-1 antibody against cancer cells was calculated. […] On the other hand, similar procedures were performed using the monoclonal antibodies (which were prepared in Example 2) reactive with the CAPRIN-1 protein itself, but not reactive with the surface of cancer cells, no cytotoxic activity was observed (see FIG. 1). […] Similarly, the anti-CAPRIN-1 antibodies were examined for ADCC activity against other human cancer cell lines including glioma cell lines (T98G and U373), lung cancer cell lines (A549 and QG56), renal cancer cell lines (Caki-1 and ACHN), a uterine cervix cancer cell line (SW756), a bladder cancer cell line (T24), an esophageal cancer cell line (KYSE180), gastric cancer cell lines (MNK28 and MNK45), a colorectal cancer cell line (SW480), a leukemia cell line (AML5), and a lymphoma cell line (Ramos).

Another experiment has as its system T98G. Briefly: ADCC activity, chromium-51 release. The conditions noted are these: glioma cell line. As for the experimental part: as §1
The test system of another experiment is QG56. The experiment can be described thus: ADCC activity, chromium-51 release. The conditions noted are these: lung cancer cell line. As for the experimental part:
as §1

The next experiment deals with ACHN. The experiment can be described thus: ADCC activity, chromium-51 release. The conditions noted are these: renal cancer cell line. As for the experimental part: as §1
For a further experiment, the system named is MNK45. Briefly: ADCC activity, chromium-51 release. The conditions noted are these: gastric cancer cell line. As for the experimental part:
as §1

Another experiment deals with U373. Briefly: ADCC activity, chromium-51 release. The conditions noted are these: glioma cell line. On the procedure: as §1
The subject of a further experiment is Caki-1. The experiment can be described thus: ADCC activity, chromium-51 release. The conditions noted are these: renal cancer cell line. On the procedure: as §1
The next experiment deals with MNK28. The experiment can be described thus: ADCC activity, chromium-51 release. The note with it: gastric cancer cell line. As for the experimental part:
as §1

The values below come from patent publication US9180187B2, “Medicament for treating and/or preventing cancer” (TORAY INDUSTRIES, INC., priority 2010, dated 2015).

Bounds are passed on as bounds.

B1: monoclonal antibody #9: mouse anti-CAPRIN-1 monoclonal antibody; heavy chain variable region SEQ ID NO: 103, light chain variable region SEQ ID NO: 107 (antibody, listed as Mus musculus, V domains shown)
VH: PRASLGVSETLLCTSGFTFTDYYMSWVRQPPGKALEWLGFIRNKANGYTTEYSASVKGRFTISRDNSQSILYLQMNTLRAEDSATYYCARANWAFDYWGQGTTVTVSSK
VL: SGDRVSLSCRASQSISNYLHWYQQKSHESPRLLIKYASQSISGIPSRFSGSGSGTDFTLSINSVETEDFGMYFCQQSNSWPYTFGGGTKLEIKQ
With B1, the “percentage of enhancement in fluorescence intensity versus control antibody” value with CAPRIN-1 protein (MCF-7 not treated with any antitumor agent) and in the experiment on CAPRIN-1 protein (MCF-7 treated with the antitumor agent at 50% inhibitory concentration for 2 days) was 32% each time. Moreover, the “ADCC activity against A549” value in the experiment on A549 is reported as no less than 24%. In addition, the “ADCC activity against T98G” value with T98G is given as no less than 12%. The “ADCC activity against QG56” value in the experiment with QG56 is given as no less than 20%. Also, in the experiment with ACHN, the “ADCC activity against ACHN” value is given as no less than 14%. Also, the “ADCC activity against MNK45” value with MNK45 is recorded as no less than 10%. In addition, the “ADCC activity against U373” value in the experiment with U373 is no less than 16%. Besides, in the experiment on Caki-1, the “ADCC activity against Caki-L” value was no less than 23%. Further, the “ADCC activity against MNK28” value in the experiment with MNK28 is given as no less than 15%.
